According to the supplement of paper PMC9170038:

System: MS2 coat protein
Test: apparent KD of MS2 coat protein; designed switch direction (-1 OFF switch, 1 ON switch): 1; higher = weaker reporter binding
Procedure, shortened: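 Transcription of designed RNA switches on Illumina chips was done by stalled E. coli RNA polymerase. SNAP-549-labelled MS2 coat protein was then titrated in doubling steps from 0.7 or 1.5 nM to 3 µM, with steps of 0.8–1.5 h at the lowest and 10–20 min at the highest concentration. The per-design median over clusters of curve-fitted normalised fluorescence is reported as apparent KD.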

[1] = input ligand: microRNA oligo, concentration not stated
[2] = Eterna round: R95, input ligand: FMN 200 uM
[3] = Eterna round: R95, input ligand: microRNA oligo, concentration not stated
[4] = Eterna round: R95, input ligand: none

| Sequence | apparent KD of MS2 coat protein (input ligand: FMN 200 uM) [nM] | apparent KD of MS2 coat protein [1] [nM] | apparent KD of MS2 coat protein (input ligand: none) [nM] | apparent KD of MS2 coat protein [2] [nM] | apparent KD of MS2 coat protein [3] [nM] | apparent KD of MS2 coat protein [4] [nM] |
| --- | --- | --- | --- | --- | --- | --- |
| GAGAGAGGGUGAGGAUAUGCAGUAAUAAUGAUAGCAGAAGGCACAGACAUGAGGAUCACCCAUGUGGGAAUAAUCCAGAGAGAG [Parity 2 - Jieux - Same State NG 1] (Eterna round: R96, puzzle: Same State NG 1) | 291 | 177 | 305 |  |  |  |
| GAGAGAUGGCGAGGAUAUUCGGUGAUAAUGAUAGAAGAAGGCGCUGACAUGAGGAUCACCCAUGUGGGAAUAAUCCAGAGAGAG [Parity 18 - Jieux - Same State NG 1] (Eterna round: R96, puzzle: Same State NG 1) | 283 | 73.8 | 226 |  |  |  |
| GAGCCAGUCCGAGGAUAUUCAUAUUAAACAUGAGGAUCACCCAUGUAGGCUCAGAAAGAGCCUUGGGAGAAGGCGGACUGGCUC [Xeonanisa<<1] (Eterna round: R96, puzzle: Same State NG 2) | 16.7 | 182 | 201 |  |  |  |
| GAGGAACAGGCCAACAUGAGGAUCACCCAUGUCCUCGCACUUCAGGAUAUCUGGAGGAAGAAGAAAGAGAAGGGAAGGUGAAGC [AK SSNG3-V2-34.2] (Eterna round: R96, puzzle: Same State NG 3) | 202 | 30.1 | 19.3 |  |  |  |
| GAGGAGGAUACAGGAUAUAUACAUGAGGAUCACACAUACAUGACAUGAGGAUCACCCAUGUUUGUAUAGAAGGGUAAGAGGAGG [Seems to be working] (Eterna round: R96, puzzle: Same State NG 2) | 51.2 | 24.2 | 66.1 |  |  |  |
| GAGGAUGAUUUACAGGAUAUAUAGAAGAUGACAUGAGGAUCACCCAUGUAAGAGAAAGGAGGGAGAUAGAAGGGUAAGGGAUGUG [JR_SS2_Sub40] (puzzle: Same State 2) |  |  |  | 37.2 | 24.5 | 42.3 |
| GAGGCACAUGAGGAUCACCCAUGUGGGUAUAACAUAGGAUAUCACCAACAAAAUACCCGGUGAGAAGGAUGAUGCC [Ravevele] (puzzle: Same State 1) |  |  |  |  | 158 |  |
| GAGGGACAGACCAACAUGAGGAUCACCCAUGUCCUCGCAGGUCAGGAUAUCCCGCCAACAGGCGAGGAGAAGGGACGGUGAACC (Eterna round: R96, puzzle: Same State NG 3) | 610 | 672 | 713 |  |  |  |
| GAGGGAUGAGCGUAGGAUAUAGGAGAAGUGACAUGAGGAUCACCCAUGUAGGAGGAGGGAUGAGACUAGAAGGACGAGGUAGGAG [JR_SS2_Sub061] (puzzle: Same State 2) |  |  |  | 37.5 | 54.7 | 67.9 |
| GAGGGCGAAAGCAACAUGAGGAUCACCCAUGUCCUCGGAGGGCAGGAUAUCCGGCGGUAGCCGAAGGAGAAGGGUCGGUAAGAA [AK SSNG3-V2-33.1] (Eterna round: R96, puzzle: Same State NG 3) | 159 | 107 | 584 |  |  |  |
| GAGUGAUGGGUUAGUAACUGCUAGGAAGGACAUGAGGAUCACCCAUGUGAGUAACGAGCUUGUGCUCGUCUUAUAAG [JR_SHM208A_Sub021] (puzzle: Sensor for hsa-mir-208a) |  |  |  | 167 | 89.4 | 325 |
| GAGUGGAGGAAAGGAUAUACAAUGAUAAUCACAGUAGAAGGUUCUAACAUGAGGAUCACCCAUGUAGGACUAUACCAGAGAGGG [Parity 46 - Jieux - Same State NG 1] (Eterna round: R96, puzzle: Same State NG 1) |  | 11.4 |  |  |  |  |
| GAGUGGCAGUAAGGAUAUAUAGUGAUAAUCACAGUAGAAGGUACUGACAUGAGGAUCACCCAUGUAGGACUAAUCCAGAGAGAG [Parity 42 - Jieux - Same State NG 1] (Eterna round: R96, puzzle: Same State NG 1) | 73.6 | 26.4 | 37.5 |  |  |  |
| GAGUGGCAGUUAGGAUAUAUAGUGAUAAUCACAAUAGAAGGAACUGACAUGAGGAUCACCCAUGUAGGACUAAUCCAGAGAGAG [Parity 40 - Jieux - Same State NG 1] (Eterna round: R96, puzzle: Same State NG 1) | 56.9 | 21.7 | 26.8 |  |  |  |
| GAGUGGUAAAGAGGAUAUGCAUUGUUAUUAAAUGCAGAAGGUUUUAACAUGAGGAUCACCCAUGUAGGACUAUUCCUGUGUUUC [Parity 65 - Jieux - Same State NG 1] (Eterna round: R96, puzzle: Same State NG 1) |  | 11.4 |  |  |  |  |
| GAGUGGUAAAGAGGAUAUGCAUUGUUAUUCACUGCAGAAGGUUUUAACAUGAGGAUCACCCAUGUAGGACUAUUCCUGUGUUUC [Parity 64 - Jieux - Same State NG 1] (Eterna round: R96, puzzle: Same State NG 1) |  | 10.3 |  |  |  |  |

| Sequence | apparent KD of MS2 coat protein (input ligand: FMN 200 uM) [nM] | apparent KD of MS2 coat protein [1] [nM] | apparent KD of MS2 coat protein (input ligand: none) [nM] | apparent KD of MS2 coat protein [2] [nM] | apparent KD of MS2 coat protein [3] [nM] | apparent KD of MS2 coat protein [4] [nM] |
| --- | --- | --- | --- | --- | --- | --- |
| GAGUGGUAGAGAGGAUAUGCAUUGUUAUUCACUGUAGAAGGUUUUAACAUGAGGAUCACCCAUGUAGGACUAUUCCUGUGUUUU [Parity 62 - Jieux - Same State NG 1] (Eterna round: R96, puzzle: Same State NG 1) | 16.3 | 13.3 | 18.4 |  |  |  |
| GAGUGGUAGGGAGGAUAUGCAUUGUUAUUAAAUGCAGAAGGUUUUAACAUGAGGAUCACCCAUGUAGGACUAUUCCUGUGUUUC [Parity 67 - Jieux - Same State NG 1] (Eterna round: R96, puzzle: Same State NG 1) | 12.4 | 12.7 | 16.9 |  |  |  |
| GAGUGGUUGGGAGGAUAUGCAUUGUUAUUAAAUGCAGAAGGUUUUAACAUGAGGAUCACCCAUGUAGGACUAUUCCUGUGUAUC [Parity 69 - Jieux - Same State NG 1] (Eterna round: R96, puzzle: Same State NG 1) | 13 | 12.1 | 15.8 |  |  |  |
| GAUCGUUUGAUAGGAUAUCGCUAUACAUGAGGAUCACCCAUGUUUACCACGCUGGUUUUUCAUACCGAGAAGGAUUCUGAUGAU [salish99_SSNG02_r04_009] (Eterna round: R96, puzzle: Same State NG 2) | 29.9 | 24.9 | 36.9 |  |  |  |
| GAUUAACAUGAGGAUCACCCAUGUCGUUUAAUGGGAGGAUAUACGUGGACCGUAGUCCGCGUAGAAGGCCUAAUUG [JL-ss1-3.22 janelle mod] (Eterna round: R96, puzzle: Same State 1) | 31.5 | 48.3 | 77.4 |  |  |  |
| GAUUAACAUGAGGAUCACCCAUGUCGUUUAAUGGGAGGAUAUACGUGGACCGUAGUCCGCGUAGAAGGCCUAAUUG [JL-ss1-3.22 janelle mod] (puzzle: Same State 1) |  |  |  |  | 76.1 |  |
| GAUUCACAUGAGGAUCACCCAUGUCGUUUUAUGGGAGGAUAUACGUGGACCGUAGUCCGCGUAGAAGGCCUAAUUG [JL-ss1-3.24 janelle mod] (puzzle: Same State 1) |  |  |  |  | 92.1 |  |
| GCAAUAAGGUGAGGAUAUGCAGAGGAUCACCCUGUAGAAGGCAUCAGGUGAGGAUAUGCAGAGGAUCACCCUGUAGAAGGCAUC [pwkr ssNG DX.15] (Eterna round: R96, puzzle: Same State NG 1) | 100 | 123 | 175 |  |  |  |
| GCACAUGAGGAUCACCCAUGUGCGCUUGGUUGUCCAAGCGCACAGGAUAUACCUCCCAAUGGGAGGUAGAAGGGUGAAAAGAAA [Orraveceat] (Eterna round: R96, puzzle: Same State NG 3) | 12.4 | 10.9 | 16 |  |  |  |
| GCACCUCGAUGAGGAUAUACAAGCGGAGAUUACAUGAGGAUCACCCAUGUGUGUCGCUUUCGAUGGUAGAAGGCAUACGAGGCA [Eternabot solution 14] (Eterna round: R96, puzzle: Same State NG 2) | 16.6 | 52.5 | 59.2 |  |  |  |
| GCAGGACGGUAAAACAUCUCACAUGAGGAUCACCCAUGUCGUGAGGAUAUGGAUCCUAAUUGGAUCCAGAAGGCACGGUCCUGC [Fiskers NG3ss - 29] (Eterna round: R96, puzzle: Same State NG 3) | 18.4 | 14 | 13.6 |  |  |  |
| GCCAACUAAUGAGGAUAUGGCACCUUAUUGGUGCCAGAAGGCAUGUCAAUUGACAUGAGGAUCACCCAUGUAUUAUAGUUGGCA [Fiskers NG1ss - 33] (Eterna round: R96, puzzle: Same State NG 1) | 90.4 | 178 | 405 |  |  |  |
| GCCACACAUGAGGAUCACCCAUGUAAUUACAUGGGAGGAUAUCAGUGCUCGAAAGAGCACUGAGAAGGCCCGUGGC [SS1 - Omei A v4] (puzzle: Same State 1) |  |  |  | 120 | 40.1 | 309 |
| GCCAGUGCGAAACUCACAUGAGGAUCACCCAUGUGCGUUGAGUAGGAUAUCCGGCUACUCGAGGCGGAGAAGGACUGGGUACUG [Eternabot solution 14] (Eterna round: R96, puzzle: Same State NG 3) | 17.4 | 12.3 | 17.3 |  |  |  |
| GCCAUCCAAUGAGGAUAUGGCACCGUUUCGGUGCCAGAAGGCAUGUCAAUUGACAUGAGGAUCACCCAUGUAUUAUGGAUGGCA [JL Fiskers NG1ss - 33 mod 2] (Eterna round: R96, puzzle: Same State NG 1) | 101 | 739 | 1390 |  |  |  |
